The assay addresses N-terminally GST-tagged human GBF1 (containing the Y828A mutation that confers BFA resistance) (human). Description: negative staining electron microscopy; purified GST-GBF1 on glow-discharged carbon grids, washed with 20 mM Bis-Tris pH 7.0, 50 mM NaCl, 1 mM DTT, stained with 1% uranyl formate; 2D class averages from 81,522 particles, compared with AlphaFold-predicted monomers.

For “N-terminally GST-tagged human GBF1 (containing the Y828A mutation that confers BFA resistance) (natural protein)”, the stoichiometry N (as a rule, the number of molecules, sites or subunits per partner or assembly) is 2.

The values above are taken from publication PMC10512945.
